The values that follow come from the Immune Epitope Database (IEDB).

For assay [1], the target named is HLA-A*02:01. Briefly: IEDB peptide-MHC binding, purified MHC/competitive/fluorescence; ≥ and ≤ were set here for values at or beyond the usual limits of such assays.
The next assay deals with HLA-A*01:01. Briefly: IEDB peptide-MHC binding, purified MHC/competitive/radioactivity; filed as Kd, often an IC50 or EC50 that approximates it; ≥ and ≤ were set here for values at or beyond the usual limits of such assays.
Assay [2] has as its target HLA-A*02:01. In words: IEDB peptide-MHC binding, purified MHC/competitive/fluorescence; filed as Kd, often an IC50 or EC50 that approximates it; ≥ and ≤ were set here for values at or beyond the usual limits of such assays.
Another assay addresses HLA-A*30:01. Briefly: IEDB peptide-MHC binding, purified MHC/competitive/radioactivity; filed as Kd, often an IC50 or EC50 that approximates it; ≥ and ≤ were set here for values at or beyond the usual limits of such assays.
Assay [3] has as its target HLA-A*02:01. Briefly: IEDB peptide-MHC binding, purified MHC/direct/fluorescence; filed as Kd, often an IC50 or EC50 that approximates it; ≥ and ≤ were set here for values at or beyond the usual limits of such assays.
The target of the next assay is HLA-A*11:01. The assay is described as above.
Another assay has as its target HLA-A*69:01. The description is as above.
A further assay deals with HLA-B*07:02. The description is as above.
In another assay the target is HLA-A*24:02. Briefly: IEDB peptide-MHC binding, purified MHC/competitive/radioactivity; filed as Kd, often an IC50 or EC50 that approximates it; ≥ and ≤ were set here for values at or beyond the usual limits of such assays.
A further assay addresses HLA-A*26:01. Described as above.
Another assay deals with HLA-A*23:01. Described as above.
The target in another assay is HLA-A*30:02. The assay is described as above.
Another assay deals with HLA-A*31:01. Briefly: IEDB peptide-MHC binding, purified MHC/direct/fluorescence; filed as Kd, often an IC50 or EC50 that approximates it; ≥ and ≤ were set here for values at or beyond the usual limits of such assays. The following applies: source organism: Vibrio cholerae.
Another assay has as its target HLA-B*15:01. Described as above. The following applies: source organism: Vibrio cholerae.
In the next assay the target is HLA-B*27:05. The assay is described as above. The following applies: source organism: Homo sapiens.
The target in a further assay is HLA-B*40:01. The description is as above. Conditions: source organism: Mus musculus.
Setting [4] is: source organism: Sudan ebolavirus.
Setting [5] is: source organism: Dengue virus 1 Brazil/97-11/1997.
The mark [6] stands for this setting: source organism: Vaccinia virus WR.
The mark [7] stands for this setting: source organism: Human alphaherpesvirus 1 strain 17.
The mark [8] stands for this setting: source organism: Dengue virus 3 Martinique/1243/1999.
[9] abbreviates: source organism: Vaccinia virus.
Setting [10] is: source organism: Zaire ebolavirus.
The mark [11] stands for this setting: source organism: Dengue virus 4 Philippines/H241/1956.
Where [12] appears, read: source organism: Dengue virus 2 Jamaica/1409/1983.
Setting [13] is: source organism: Mammarenavirus juninense.
[14] abbreviates: source organism: Dengue virus 2 Peru/IQT2913/1996.

On to LSLLQLPRD, for which the IC50 with HLA-A*02:01 [1] (setting [4]) was at least 173 µM. Consider YSDRRWCFD, for which the Kd with HLA-A*01:01 (setting [5]) stood at 1.07 µM. In the assay with HLA-A*02:01 [2] (setting [6]), MPQMKKILK displayed a Kd of 2.01 µM. In the case of RIQQYMFFM, in the assay with HLA-A*02:01 [2] (setting [7]), the Kd came out at 0.081 µM. LAGVSLLPVC: the Kd in the assay with HLA-A*30:01 (setting [8]) was found to be 15.9 µM. In turn, DLCGSVFLV yielded an IC50 with HLA-A*02:01 [1] (source organism: Hepatitis C virus genotype 1) of 5 µM. In the assay with HLA-A*02:01 [1] (setting [6]), GLYKSINVE showed an IC50 of 39.5 µM. Take LTLKPCHAL: the Kd was determined as 4.76 µM with HLA-A*02:01 [3] (source organism: Brucella suis), 18 µM with HLA-A*11:01 (source organism: Brucella suis), 0.546 µM with HLA-A*69:01 (source organism: Brucella suis) and 1.96 µM in the assay with HLA-B*07:02 (source organism: Brucella suis). Consider NVLDEKYNT, for which, in the assay with HLA-A*02:01 [1] (setting [9]), the IC50 is at least 319 µM.

As to LFSGVSWVM, in the assay with HLA-A*24:02 (setting [8]), the Kd is 0.105 µM. Regarding HVTRGAVLMY, in the assay with HLA-A*26:01 (setting [5]), the Kd stood at 0.233 µM. For the sequence ITDFAGKTV, in the assay with HLA-A*01:01 (setting [8]), the Kd is at least 20.3 µM. Take EEALKGLPIR: the Kd with HLA-A*30:01 (setting [8]) amounted to 0.609 µM.

Turning to LTSREVLLL, the Kd with HLA-A*01:01 (setting [5]) amounted to 0.288 µM. In the assay with HLA-A*02:01 [1] (setting [10]), ASTVIYRGT had an IC50 of at least 222 µM. Take MFGGVSWMV: in the assay with HLA-A*23:01 (setting [11]), the Kd amounted to 8.79 µM. VLPEEQDQNY: the Kd with HLA-A*01:01 (setting [8]) came out at 11 µM; in the assay with HLA-A*30:02 (setting [8]) it was 6.87 µM.

As for KLSNAKWLA, the Kd is 0.413 µM with HLA-A*02:01 [3] (source organism: Vibrio cholerae), 1.63 µM with HLA-A*31:01 and 1.63 µM with HLA-B*15:01.

With VLTLATGPVL, the Kd with HLA-A*30:01 (setting [11]) turned out to be 1.5 µM. For the sequence NSLEVEDYGF, the Kd with HLA-A*23:01 (setting [12]) worked out at 5.43 µM. In the case of TGILGSLGL, the IC50 with HLA-A*02:01 [1] (setting [4]) is at least 92.7 µM. In the case of AHSTIMPRL, the figures for the Kd with HLA-A*69:01 (source organism: Homo sapiens) and with HLA-B*27:05 were 0.832 µM and 8.62 µM, respectively. Consider WTEQYKFQA, for which the Kd with HLA-A*01:01 (setting [5]) is at least 20.2 µM. Take KHKIFSPFK: the Kd in the assay with HLA-A*30:01 (setting [6]) came out at 0.000886 µM. Take FYQKTGEKS: the dissociation constant Kd is at least 78.1 µM in the assay with HLA-A*01:01 (setting [13]), at least 58.7 µM with HLA-A*24:02 (setting [13]), at least 77.9 µM with HLA-A*26:01 (setting [13]) and at least 40.8 µM with HLA-A*30:02 (setting [13]). Consider ASKSLKPTK, for which the Kd with HLA-A*30:01 (setting [6]) worked out at 0.0151 µM. For FLADKKMTL, the Kd with HLA-A*02:01 [2] (setting [6]) came out at 0.0015 µM. For the sequence HVFFSEYIV, the dissociation constant (Kd) with HLA-A*30:01 (setting [6]) came to 0.883 µM. With MRSRWSRKML, the Kd with HLA-A*30:01 (setting [5]) was found to be 0.175 µM. FPEHIFPAL: the equilibrium dissociation constant (Kd) with HLA-A*69:01 (source organism: Mus musculus) was found to be 2.33 µM; with HLA-B*07:02 (source organism: Mus musculus), 0.937 µM; with HLA-B*40:01 it was 0.278 µM. Consider IVQPENLEY, for which the Kd with HLA-A*01:01 (setting [14]) is 0.512 µM; with HLA-A*30:02 (setting [14]), 0.11 µM. Sequence KIGDFGLATV showed an IC50 in the assay with HLA-A*02:01 [1] (source organism: Homo sapiens) of 0.04 µM. Consider RVLSIPPTA, for which the Kd in the assay with HLA-A*30:01 (setting [11]) is 0.118 µM. In the assay with HLA-A*02:01 [1] (source organism: Vaccinia virus Copenhagen), LNASQYANC gave an IC50 of at least 1400 µM. As to TLVPQEHYV, the Kd with HLA-A*02:01 [3] (source organism: SARS-CoV1) is 0.119 µM; with HLA-A*11:01 (source organism: SARS-CoV1), at least 43.2 µM; with HLA-A*69:01 (source organism: SARS-CoV1), 0.0795 µM. Sequence KRLEELLPA came in with an IC50 in the assay with HLA-A*02:01 [1] (setting [10]) of at least 683 µM. Take MLAESCDSV: the Kd in the assay with HLA-A*02:01 [2] (setting [9]) came out at 0.0011 µM.

On to IITASILLWY, for which the Kd in the assay with HLA-A*01:01 (setting [12]) was determined as 0.0932 µM. As to KVKKKYAIG, the Kd in the assay with HLA-A*30:01 (setting [6]) amounted to 0.00155 µM. For the sequence KSKSRRLNL, in the assay with HLA-A*30:01 (setting [6]), the Kd was 0.0126 µM. The same measure, in the same setting: with RTRAINKYS the figure was 0.0127 µM.

As to AKQPATLRKY, in the assay with HLA-A*30:02 (setting [12]), the Kd was determined as 5.24 µM. In the assay with HLA-A*02:01 [2] (setting [7]), ALSALLTKL displayed a Kd of 0.313 µM. ESEIPNLDII: the Kd with HLA-A*01:01 (setting [12]) came out at 7.19 µM.
